According to patent JP2023550785A (dated 2023):

Columns and labels:
[1] = molecular target: SARS-CoV (Urbani strain) prefusion-stabilized spike (S) protein / S ectodomain trimer (SARS-CoV (Urbani strain), UniProt P59594 14-1195)
[2] = molecular target: T1, HCoV-HKU1 prefusion-stabilized spike (S) protein / S ectodomain trimer (human coronavirus HKU1, UniProt Q5MQD0 13-1300)
T1 sequence: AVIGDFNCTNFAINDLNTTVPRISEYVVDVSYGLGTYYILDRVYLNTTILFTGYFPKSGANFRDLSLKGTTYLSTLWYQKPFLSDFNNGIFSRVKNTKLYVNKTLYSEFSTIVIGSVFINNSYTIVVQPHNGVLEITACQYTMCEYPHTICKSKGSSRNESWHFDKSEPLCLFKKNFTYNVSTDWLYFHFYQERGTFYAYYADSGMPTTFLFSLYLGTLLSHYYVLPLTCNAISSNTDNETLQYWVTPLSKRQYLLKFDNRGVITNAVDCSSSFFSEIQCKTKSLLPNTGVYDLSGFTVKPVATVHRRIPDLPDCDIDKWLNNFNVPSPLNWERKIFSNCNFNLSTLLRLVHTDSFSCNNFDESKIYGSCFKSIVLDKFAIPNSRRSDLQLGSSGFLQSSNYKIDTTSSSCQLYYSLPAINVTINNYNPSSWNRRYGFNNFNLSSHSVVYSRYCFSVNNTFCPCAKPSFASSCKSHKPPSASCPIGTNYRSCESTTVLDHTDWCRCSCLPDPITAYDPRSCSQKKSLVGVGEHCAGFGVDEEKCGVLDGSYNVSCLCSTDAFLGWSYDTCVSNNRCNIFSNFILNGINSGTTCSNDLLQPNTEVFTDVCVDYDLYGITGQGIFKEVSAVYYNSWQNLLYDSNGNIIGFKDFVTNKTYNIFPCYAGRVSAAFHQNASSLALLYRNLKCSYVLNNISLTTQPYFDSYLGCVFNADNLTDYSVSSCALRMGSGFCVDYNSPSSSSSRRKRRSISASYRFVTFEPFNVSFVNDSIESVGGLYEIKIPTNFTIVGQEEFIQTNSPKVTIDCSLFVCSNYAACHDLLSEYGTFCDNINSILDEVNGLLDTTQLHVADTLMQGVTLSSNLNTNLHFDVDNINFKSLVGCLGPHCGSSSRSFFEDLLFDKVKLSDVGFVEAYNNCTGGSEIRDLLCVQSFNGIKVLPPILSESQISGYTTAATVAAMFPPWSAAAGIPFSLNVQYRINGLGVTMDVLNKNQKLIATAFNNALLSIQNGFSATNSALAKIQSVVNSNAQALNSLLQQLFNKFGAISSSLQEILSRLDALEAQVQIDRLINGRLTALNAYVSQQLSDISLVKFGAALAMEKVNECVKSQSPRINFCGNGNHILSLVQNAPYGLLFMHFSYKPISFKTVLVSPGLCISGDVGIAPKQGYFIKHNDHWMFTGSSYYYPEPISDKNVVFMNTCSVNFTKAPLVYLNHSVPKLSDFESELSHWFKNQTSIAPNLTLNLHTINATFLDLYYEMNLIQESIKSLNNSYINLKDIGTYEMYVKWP

[3] = molecular target: T2, MERS-CoV (London1/2012) prefusion-stabilized spike (S) protein / S ectodomain trimer (MERS-CoV (London1/2012), UniProt K9N5Q8 18-1296)
T2 sequence: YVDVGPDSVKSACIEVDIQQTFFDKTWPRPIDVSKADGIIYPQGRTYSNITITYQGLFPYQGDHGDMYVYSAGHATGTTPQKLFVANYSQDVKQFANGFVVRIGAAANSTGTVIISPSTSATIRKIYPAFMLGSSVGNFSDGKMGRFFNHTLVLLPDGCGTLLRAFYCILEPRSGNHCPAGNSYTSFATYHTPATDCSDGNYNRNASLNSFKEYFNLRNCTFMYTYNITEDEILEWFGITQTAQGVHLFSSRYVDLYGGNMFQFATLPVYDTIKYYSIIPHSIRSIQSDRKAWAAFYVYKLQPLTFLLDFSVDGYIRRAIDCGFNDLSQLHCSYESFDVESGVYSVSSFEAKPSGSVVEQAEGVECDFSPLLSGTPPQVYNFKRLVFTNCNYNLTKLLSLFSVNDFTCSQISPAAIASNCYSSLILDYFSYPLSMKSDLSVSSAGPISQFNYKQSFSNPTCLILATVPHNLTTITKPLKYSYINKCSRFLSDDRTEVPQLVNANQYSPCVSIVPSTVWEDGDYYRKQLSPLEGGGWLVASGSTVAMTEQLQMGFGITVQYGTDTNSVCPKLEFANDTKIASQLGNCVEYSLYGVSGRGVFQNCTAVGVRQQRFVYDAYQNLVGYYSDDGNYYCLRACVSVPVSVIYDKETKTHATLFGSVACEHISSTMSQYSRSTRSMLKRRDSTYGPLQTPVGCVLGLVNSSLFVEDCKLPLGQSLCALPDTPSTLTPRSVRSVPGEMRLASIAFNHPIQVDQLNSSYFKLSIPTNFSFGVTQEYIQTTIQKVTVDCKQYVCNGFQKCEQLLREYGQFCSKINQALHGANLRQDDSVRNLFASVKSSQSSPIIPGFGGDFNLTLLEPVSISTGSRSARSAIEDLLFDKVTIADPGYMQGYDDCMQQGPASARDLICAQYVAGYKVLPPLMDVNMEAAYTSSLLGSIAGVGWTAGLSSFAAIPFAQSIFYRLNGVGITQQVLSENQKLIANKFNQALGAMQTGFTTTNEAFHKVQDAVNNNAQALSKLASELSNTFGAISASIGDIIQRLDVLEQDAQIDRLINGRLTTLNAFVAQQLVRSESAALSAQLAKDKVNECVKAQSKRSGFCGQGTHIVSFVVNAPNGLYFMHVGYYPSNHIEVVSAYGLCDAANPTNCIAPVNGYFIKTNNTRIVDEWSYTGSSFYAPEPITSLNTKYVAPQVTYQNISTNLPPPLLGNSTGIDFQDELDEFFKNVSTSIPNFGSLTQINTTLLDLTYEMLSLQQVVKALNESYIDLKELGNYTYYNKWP

B1: antibody S2P6 (antibody 420 1 1), human monoclonal antibody expressed as recombinant human IgG1 (antibody, V domains shown)
VH: EVQLVQSGAEVKKPGASVKVSCKASGYTFTSQYMHWVRQAPGQGLEWIGIINPSGVHTSYAQKFQGRVTLTRDTSTSTLYMELSSLRSEDTAVYYCARGSPKGAFDYWGQGTLVTVSS
VL: not shown
Kd [1]: < 0.001 nM
Kd [2]: 2.44 nM
Kd [3]: 1.14 nM
